Data on two molecules can be found in publication PMC6355189, “A structural model of the immune checkpoint CD160–HVEM complex derived from HDX-mass spectrometry and molecular modeling” (Oncotarget, 2019).

Assay [1] concerns the target T1, Human HVEM-Fc protein (human, UniProt Q92956 39-202).
T1 construct: herpes virus entry mediator (HVEM), human, as Fc fusion, bought; Detected by goat anti-human IgG(H+L)-HRP; source: bought: ACROBiosystems, USA (#HVM-H5258)
T1 sequence (looked up): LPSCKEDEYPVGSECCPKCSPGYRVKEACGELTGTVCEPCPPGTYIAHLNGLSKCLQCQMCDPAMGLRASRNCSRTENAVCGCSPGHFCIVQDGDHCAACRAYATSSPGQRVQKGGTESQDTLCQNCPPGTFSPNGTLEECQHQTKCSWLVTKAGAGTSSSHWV
As to the kind of experiment: ELISA; biotinylated peptides or biotinylated CD160 (1 μg/ml) on a streptavidin microplate; HVEM-Fc at 20, 10 and 5 μg/ml, 1 hour at 25°C; PBS-T (5 mM Na2HPO4, 150 mM NaCl with addition of 0.3 M NaCl and 0.05% Tween-20, pH 7.4); detection by goat antihuman IgG(H+L)–HRP. The note with it: both partners purified. On the technique in general: In an ELISA, binding on a coated surface is turned into a signal by an enzyme label.

In assay [2] the target is T2, Recombinant human protein HVEM with His Tag (human, UniProt Q92956 39-202).
T2 construct: herpes virus entry mediator (HVEM), human, recombinant, bought; also called HVEM protein; herpes virus entry mediator; source: bought: Sino Biological Inc., China (#10334-H08H)
T2 sequence (looked up): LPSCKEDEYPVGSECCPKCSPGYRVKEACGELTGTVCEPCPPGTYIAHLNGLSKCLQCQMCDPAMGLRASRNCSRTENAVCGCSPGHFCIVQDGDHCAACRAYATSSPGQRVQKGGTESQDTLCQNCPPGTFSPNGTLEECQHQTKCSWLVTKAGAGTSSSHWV
As to the kind of experiment: microcolumn affinity test with mass spectrometry; HVEM protein immobilised in a microcolumn; peptide applied; supernatant, last wash and elution analysed by mass spectrometry. To be noted: both partners purified.

Ends that are not written are not given here.

B1: CD160(61–80) peptide elongated by five glycine residues and biotin (peptide)
peptide: GVGEISSQLMFTISQVTPLH
modifications: also: elongated by five glycine residues and biotin, end not given here
notes: CD160, human, residues 61-80; source: synthetic peptide
As for B1, the binding result in assay [1] is “binds”.

B2: CD160 (61–80) (peptide)
peptide: Ac-GVGEISSQLMFTISQVTPLH-NH2
notes: as for B1
B2: the binding result in assay [2] was “binds”.
